Assay results published in US20190218261A1, “TARGETED ENHANCED DNA DEMETHYLATION” (The Jackson Laboratory, priority 2016, published 2019).

Key:
[1] = system: hMLH1 expression (methylation-silenced hMLH1 promoter) in HEK293T cells; test: hMLH1 mRNA levels by TaqMan qRT-PCR in transfected HEK293T cells; type: cell-based, human
Procedure: To test the system, HEK293T cells were transfected with Casilio-ME components including Ct or Nt-fusion TET1-effector and a combination of 3 or 2 sgRNAs. Relative levels of hMLH1 mRNA were determined in TaqMan assays by using RNA extracted from cells 60 hours post-transfection and GAPDH as endogenous control for normalization of qRT-PCR measurements.
Cell culture and transfection. HEK293T cells were cultivated in Dulbecco's modified Eagle's medium (DMEM)(Sigma) with 10% fetal bovine serum (FBS)(Lonza), 4% Glutamax (Gibco), 1% Sodium Pyruvate (Gibco) and penicillin-streptomycin (Gibco) in an incubator set to 37° C. and 5% CO2. When indicated cells were treated with 2.5 μM or 5 μM 5-Azacytidine (sigma) as indicated with a daily change of medium containing freshly diluted drug. Cells were seeded into 12-well plates at 150,000 cells per well the day before being transfected with 100 ng of dCas9 construct, 100 ng of modified sgRNA construct and 200 ng of PUF-fusion with Attractene transfection reagent according to manufacturer's instructions (Qiagen). In dCas9-direct fusion experiments, cells were transfected with 200 ng dCas9-fusion constructs and 200 ng of modified sgRNA constructs. Transfected cells were harvested 60 hours after transfection, or otherwise indicated, and cell pellets were used for extractions of RNA, genomic DNA and protein.
Quantitative RT-PCR analysis. Cells were harvested, washed with Dulbecco's phosphate-buffered saline (dPBS), centrifuged at 125×g for 5 min and then the flash-frozen pellets were stored at −80° C. RNA was extracted using RNeasy Plus Mini Kit according to the manufacturer's instructions (Qiagen). cDNA libraries were made using Applied Biosystems High Capacity RNA-to-cDNA kit with 200 ng to 1 μg of RNA. TaqMan gene expression assays (Applied Biosystems) were designed using GAPDH (Hs03929097, VIC) as endogenous control and hMLH1 (Hs00179866, FAM) as target. TaqMan Universal Master Mix II, with UNG (Applied Biosystems) was used for Quantitative PCR (qPCR), with 2 μl of diluted cDNA used for each reaction. Activation was analyzed with the Applied Biosystems ViiA7 instrument. Gene expression levels were calculated by “delta delta Ct” algorithm and normalized to control samples.
HEK293T cells were cultivated in Dulbecco's modified Eagle's medium (DMEM) (Sigma) with 10% fetal bovine serum (FBS) (Lonza), 4% Glutamax (Gibco), 1% Sodium Pyruvate (Gibco) and penicillin-streptomycin (Gibco) in an incubator set to 37° C. and 5% CO2. Cells were seeded into 12-well plates at 150,000 cells per well the day before being transfected with 100 ng of dCas9 construct, 100 ng of modified sgRNA construct and 200 ng of PUF-fusion with Attractene transfection reagent according to manufacturer's instructions (Qiagen). Transfected cells were harvested 3 days after transfection, or otherwise indicated, and cell pellets were used for RNA extractions.
Cells were harvested, washed with Dulbecco's phosphate-buffered saline (dPBS), centrifuged at 125×g for 5 min and then the flash-frozen pellets were stored at −80° C. RNA was extracted using RNeasy Plus Mini Kit according to the manufacturer's instructions (Qiagen). cDNA libraries were made using Applied Biosystems High Capacity RNA-to-cDNA kit with 200 ng to 2 μg of RNA. TaqMan gene expression assays (Applied Biosystems) were designed using GAPDH (Hs03929097, VIC) as endogenous control and hMLH1 (Hs00179866, FAM) as target. TaqMan Universal Master Mix II, with UNG (Applied Biosystems) was used for Quantitative PCR (qPCR), with 2 μl of diluted cDNA used for each reaction. Activation was analyzed with the Applied Biosystems ViiA7 instrument. Gene expression levels were calculated by “delta delta Ct” algorithm and normalized to control samples.

[2] = system: MLH1 protein in HEK293T cells; test: Western blot of MLH1 protein with anti-hMLH1 monoclonal antibody; type: cell-based, human; conditions: HEK293T collected 3 day after transfection
Procedure: To determine the effect of Casilio-ME targeting on MLH1 protein synthesis, Western blot analyses were performed on total protein extracted from HEK293T transfected cells as well as untransfected HEK293 and AzaC-treated HEK293T cells using anti-hMLH1 monoclonal antibody. […] Casilio-ME-mediated induction of MLH1 synthesis is still remarkable and could be improved by, for example, tilling multiple guide RNAs to augment the range and efficiency of CpG demethylation to achieving better activation of hMLH1 expression.
Western blot analysis. Protein from cell extracts (30 μg) were separated by electrophoresis on 10% SDS-polyacrylamide gels and then transferred to nitrocellulose membranes at 100 V for 1 hour using Bjerrum Schafer-Nielsen Buffer with SDS. Blocked membrane in 5% Blotting-Grade Blocker (BioRad) in TBS-T were then incubated overnight at 4° C. with the indicated antibodies, and the protein bands were detected using Horseradish peroxidase-conjugated secondary antibodies and Clarity Western ECL Substrate according to manufacturer's instructions (BioRad). Gels were imaged using a G:Box (Syngene).

B1: GADD45A-PUFa-TET1(CD): GADD45A at N-terminus of PUFa-TET1(CD); SEQ ID NO:104 (protein)
chain: MTLEEFSAGEQKTERMDKVGDALEEVLSKALSQRTITVGVYEAAKLLNVDPDNVVLCLLAADEDDDRDVALQIHFTLIQAFCCENDINILRVSNPGRLAELLLLETDAGPAASEGAEQPPDLHCVLVTNPHSSQWKDPALSQLICFCRESRYMDQWVPVINLPERSRTGAATMIDGGGGSDPKKKRKVDPKKKRKVDPKKKRKVGSTGSRNDGGGGSGGGGSGGGGSGRAGILPPKKKRKVSRGRSRLLEDFRNNRYPNLQLREIAGHIMEFSQDQHGSRFIQLKLERATPAERQLVFNEILQAAYQLMVDVFGNYVIQKFFEFGSLEQKLALAERIRGHVLSLALQMYGSRVIEKALEFIPSDQQNEMVRELDGHVLKCVKDQNGNHVVQKCIECVQPQSLQFIIDAFKGQVFALSTHPYGCRVIQRILEHCLPDQTLPILEELHQHTEQLVQDQYGNYVIQHVLEHGRPEDKSKIVAEIRGNVLVLSQHKFASNVVEKCVTHASRTERAVLIDEVCTMNDGPHSALYTMMKDQYANYVVQKMIDVAEPGQRKIVMHKIRPHIATLRKYTYGKHILAKLEKYYMKNGVDLGDPKKKRKVDPKKKRKVGGRGGGGSGGGGSGGGGSGPAELPTCSCLDRVIQKDKGPYYTHLGAGPSVAAVREIMENRYGQKGNAIRIEIVVYTGKEGKSSHGCPIAKWVLRRSSDEEKVLCLVRQRTGHHCPTAVMVVLIMVWDGIPLPMADRLYTELTENLKSYNGHPTDRRCTLNENRTCTCQGIDPETCGASFSFGCSWSMYFNGCKFGRSPSPRRFRIDPSSPLHEKNLEDNLQSLATRLAPIYKQYAPVAYQNQVEYENVARECRLGSKEGRPFSGVTACLDFCAHPHRDIHNMNNGSTVVCTLTREDNRSLGVIPQDEQLHVLPLYKLSDTDEFGSKEGMEAKIKSGAIEVLAPRRKKRTCFTQPVPRSGKKRAAMMTEVLAHKIRAVEKKPIPRIKRKNNSTTTNNSKPSSLPTLGSNTETVQPEVKSETEPHFILKSSDNTKTYSLMPSAPHPVKEASPGFSWSPKTASATPAPLKNDATASCGFSERSSTPHCTMPSGRLSGANAAAADGPGISQLGEVAPLPTLSAPVMEPLINSEPSTGVTEPLTPHQPNHQPSFLTSPQDLASSPMEEDEQHSEADEPPSDEPLSDDPLSPAEEKLPHIDEYWSDSEHIFLDANIGGVAIAPAHGSVLIECARRELHATTPVEHPNRNHPTRLSLVFYQHKNLNKPQHGFELNKIKFEAKEAKNKKMKASEQKDQAANEGPEQSSEVNELNQIPSHKALTLTHDNVVTVSPYALTHVAGPYNHWVID
Q: Which results are given for B1?
A: enhancement of hMLH1 expression relative to PUFa-TET1(CD) alone ([1]; GADD45A two-in-one effectors, HEK293T, TaqMan): approximately 9 fold; ranking of activation among GADD45A and TET1(CD) fusion configurations ([1]; methylation-silenced hMLH1): highest activity; MLH1 protein amount by Western blot (whole cell extracts) [2]: higher protein amounts
